Residue numbers refer to the chain shown, from its start.
T1: CD83-His (ectodomain of human CD83 with 6x Histidine tag) (human, UniProt Q01151 20-144)
T1 construct: extracellular domain; Expressed in mammalian cells; also called hCD83-His; recombinant CD83-His; not shown: 6x Histidine tag
T1 sequence (looked up): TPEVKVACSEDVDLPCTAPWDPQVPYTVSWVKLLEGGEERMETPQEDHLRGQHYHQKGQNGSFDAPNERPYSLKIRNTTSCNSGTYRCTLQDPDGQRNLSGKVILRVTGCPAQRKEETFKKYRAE

T2: CD83-Fc (human CD83 ectodomain, Fc tagged) (human, UniProt Q01151 20-144)
T2 construct: extracellular domain; The construct is not described beyond 'hCD83 ectodomain (Fc and His tagged)'; also called hCD83-Fc; not shown: Fc tag
T2 sequence (looked up): T1 sequence (looked up)

B1: hFab 1F7 (Fab, V domains shown)
VH: EVQLVQSGGAVVQPGRSLRLSCAASGFTFSTYGMHWVRQAPGKGLEWVAAVSYDGSNKYYADFVKGRFTISRDNPKNTLYLQMNSLRADDTAVYYCARRGGLDIWGQGTTVTVSS
VL: LTQPPPASGTPGQRVTISCSGSSSNIGSNTVNWYQQLPGTAPKLLIYGNDQRPSGVPDRFSASKSGTSASLAISGLQSEDEAHYYCAAWDGSLNGGVIFGGGTKVTLG
notes: Human Fab from a phage display library; The heavy chain carries a 6x His tag and a myc tag, and the light chain was detected as kappa; also called 1F7 hFab; 1F7 Fab
B2: hFab4.8 (Fab, V domains shown)
VH: B1 VH
VL: MTQSPSSLSASVGDRVTITCQASQDISNYLNWYQQKPGKAPKLLIYDASNLETGVPSRFSGSGSGTDFTFTISSLQPDDFATYYCQQTYSWPRTFGQGTKLEIKR
notes: Light chain shuffled variant of 1F7, expressed as hFab in the E. coli periplasm
B3: hFab4.5 (Fab, V domains shown)
VH: B1 VH
VL: LTQSPLSLPVTLGQPASISCKSSQSLVDSDGNTYLNWFQQRPGQSPRRLIYKVSNRDSGVPDRFSGSGSGTDFTLKISRVEAEDVGVYYCMQGTHWPRTFGQGTKVEIKR
notes: as for B2
B4: hFab4.4 (Fab, V domains shown)
VH: B1 VH
VL: B3 VL with L1M, K21R, D30A, Y34F, N36H, Q39H
notes: as for B2
B5: hFab4.9 (Fab, V domains shown)
VH: B1 VH
VL: MTQSPSSLSASVGHPVTITCRASQSLISYLNWYHQKPGKAPKLLIYAASILQSGVPSRFSGSGSGTDFTLTISSLQPENFASYYCQHTDSFPRTFGHGTKVEIKR
notes: Light chain shuffled variant of 1F7
B6: hFab4.2 (Fab, V domains shown)
VH: B1 VH
VL: MTHTPLSLSVTPGQPASISCKSSQSLLHSDGKTYLYWYLQRPGQSPQPLIYEVSNRFSGVPDRFSGSGSGTDFTLKISRVEAEDVGVYYCMQSLQLWTFGQGTKVEIKR
notes: as for B5
B7: hFab4.10 (Fab, V domains shown)
VH: B1 VH
VL: LTQPPSASGTPGQGVTISCRGSTSNIGNNVVNWYQHVPGSAPKLLIWSNIQRPSGIPDRFSGSKSGTSASLAISGLQSEDEAVYYCAVWDDGLAGWVFGGGTTVTVLS
notes: as for B5
B8: hFab4.1 (Fab, V domains shown)
VH: B1 VH
VL: VTQPPSASGTPGQRVTISCSGSSSNIGTNPVNWYQQLPGTAPKLLIYTTDQRPSGVPDRFSGSKSGTSASLAISGLQSEDEADYYCAAWDDSLSGLYVFGTGTKVTVLG
notes: as for B5
B9: hFab4.12 (Fab, V domains shown)
VH: B1 VH
VL: MTQAPVVSVALEQTVRITCQGDSLAIYYDFWYQHKPGQAPVLVIYGKNNRPSGIPHRFSGSSSNTDSLTITGAQAEDEADYYCNSRDSSGNHWVFGGGTNLTVLG
notes: as for B5
B10: hFab4.7 (Fab, V domains shown)
VH: B1 VH
VL: B3 VL with L1M, K21R, D28H, T33M, G93A, H95Q, W96P, P97T, R98W, V106L
notes: as for B5
B11: hFab4.18 (Fab, V domains shown)
VH: B1 VH
VL: B3 VL with S23N, D28H, S78N, H95Q, V106L, E107D
notes: as for B5
B12: hFab4.3 (Fab, V domains shown)
VH: B1 VH
VL: B3 VL with L1M, K21R, V27I, D28H, N36D, K76R, V85I, G93A
notes: as for B5

target: T1, CD83-His (ectodomain of human CD83 with …); experiment: ELISA on coated CD83-His, detection with anti-kappa-HRP antibody, absorbance at 450 nm
Method: The reactivity of purified hFab 1F7 to CD83 was analysed by ELISA.

Binder	EC50 (read off the curve)
B1	~2 µg/mL

target: T2, CD83-Fc (human CD83 ectodomain, Fc …); experiment: binding of periplasmic hFab's to CD83-Fc, normalised to binding to 9E10

Binder	binding result
B2	binds
B3	binds
B4	binds

target: T1, CD83-His (ectodomain of human CD83 with …); experiment: relative binding of light chain shuffled clones against 1F7; CD83 construct not given

Binder	binding result
B5	binds
B2	binds
B6	binds
B7	binds
B8	binds
B3	binds
B9	binds
B4	binds
B10	binds
B11	binds
B12	binds

target: BSA (Bos taurus, UniProt P02769); experiment: ELISA on coated antigens, absorbance at 450 nm
Sequence (P02769 25-607 limits assumed): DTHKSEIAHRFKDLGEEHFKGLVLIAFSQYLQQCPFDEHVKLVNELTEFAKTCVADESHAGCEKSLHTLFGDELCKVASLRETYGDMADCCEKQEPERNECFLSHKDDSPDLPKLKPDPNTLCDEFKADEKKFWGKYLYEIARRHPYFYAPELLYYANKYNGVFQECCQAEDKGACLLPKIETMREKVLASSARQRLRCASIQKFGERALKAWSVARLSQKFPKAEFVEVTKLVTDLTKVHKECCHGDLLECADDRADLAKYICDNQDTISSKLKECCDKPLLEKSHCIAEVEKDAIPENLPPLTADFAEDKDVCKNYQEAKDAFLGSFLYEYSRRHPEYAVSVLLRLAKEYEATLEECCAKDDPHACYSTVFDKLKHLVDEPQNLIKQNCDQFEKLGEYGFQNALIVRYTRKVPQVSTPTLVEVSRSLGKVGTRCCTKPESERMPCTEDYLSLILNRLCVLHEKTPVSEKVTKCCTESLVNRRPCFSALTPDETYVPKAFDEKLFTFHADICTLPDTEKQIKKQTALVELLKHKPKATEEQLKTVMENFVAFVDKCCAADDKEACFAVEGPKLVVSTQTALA

Binder	binding result
B1	no binding

From US20210101992A1 (KIRA BIOTECH, published 2021)
